Experimental data: patent US20250101446A1, “METHOD FOR GENETIC TRANSFORMATION OF PLANT ORGANELLE GENOME AND USES THEREOF” (Solar Grants Biotechnology Inc., priority 2022, published 2025)

Experiments:
PHA-stimulated PBMCs = assay: Cytokine secretion from PHA-stimulated PBMCs treated with plantakines (multiplex Luminex); type: cell-based, human
Method: The bioactivity of our plantakines IL-37b and IL-38 was assessed by monitoring the secretion of 11 cytokines, generally regarded as inflammatory markers, from PBMCs stimulated with an IA. Freshly isolated human PBMCs were subjected to various treatments-combinations of the IAs with the plantakines at different concentrations. Two different model IAs were used, either the bacterial lipopolysaccharides (LPS) or a lectin from Phaseolus vulgaris (phytohaemagglutinin, PHA); each of the IAs was applied onto cells separately, each IA was applied at two concentrations: LPS at 150 and 300 μg/mL; PHA at 5 and 10 μg/mL. Each IA at each concentration was applied in combination with one of the two plantakines, each of them at three different concentrations: 1, 10 and 100 ng/ml of the monomeric forms present in the purified extracts. Also included were treatments comprised of either IA at their lower concentrations, in combination with both plantakines at 10 ng/ml concentration in order to assess possible synergistic effects. Cells with only IAs applied represented the reference (positive controls for each concentration), cells without any treatment represented the basal level (negative control). The levels of eleven different pro-inflammatory cytokines secreted into the medium from the PBMCs-GM-SCF, IFNγ. TNFα, IL-1α, IL-1β, IL-6, IL-8, IL-22, IL12, IL-17 and IL-10 were compared between the treatments and the controls. We applied Generalized Estimating Equation (GEE) model for the statistical data analysis. This statistical approach allows for nested observations and was used to test the effects of the plantakines IL-37b and IL-38 and their dosage in the context of IA-stimulated PBMCs inflammatory responses.
After isolation, the PBMCs from each donor separately were counted, plated in equal numbers per well and stimulated for 24 h with the applied treatments. Control wells on the plate contained media only (as basal level controls), and LPS and PHA (as positive controls at their corresponding concentrations). After the 24 h treatments stimulation the PBMCs' culture supernatants were used in the multiplex Luminex platform-assisted analysis of the concentrations of the 11 secreted pro-inflammatory cytokines.
The whole blood from 5 random human donors was collected in ACD Vacutainer tubes and immediately processed for isolation of PBMCs by gradient density centrifugation using Lympholyte. […] 5% CO2 and >80% humidity. PBMCs were treated with one of two IAs at 2 concentrations each (LPS at 150 and 300 μg/mL; PHA at 5 and 10 μg/mL) in combination with two test items (plant-produced IL-37b or IL-38) at three concentrations each (1, 10 and 100 ng/ml), based on the monomeric form amounts estimated with densitometry (ImageJ). Each treatment was tested in triplicates. Control wells contained media only (negative control, basal level of detection) and the examined IAs at both tested concentrations as the positive controls. The PBMCs were incubated for 24 hours after the stimulation for analysis of the levels of the secreted cytokines that were determined in the culture supernatant using a multiplex immunoassay (MAGPix®, Luminex), analytes were selected from the Milliplex panel HCYTOMAG-60K, sensitivity range of […]. All parameters of the Milliplex panel cytokines analysis using Luminex platform were validated (Millipore-Sigma).
Non-linear logarithm transformation was performed to address non-normality of distribution of Luminex-derived numeric data. Generalized Estimating Equation (GEE) method was used in the analysis of nested (correlated) structure of the data. Secreted inflammatory cytokine values were used as dependent variables and test item (plantakines) with dosage as independent predictors (factors). Separate analyses were conducted for each of the 11 monitored cytokines and each inflammatory agent/concentration combination. […]

[1] = tested on: human NSCLC cell line NCI-H1792; assay: Attenuation of P1-induced IL-6 secretion in NCI-H1792 cells by pre-treatment with plant-produced cytokines (ELISA); type: cell-based; conditions: H1792 cells; pre-incubated 3 h, 1.0 ng/ml; P1 24 h

B1: plant-produced recombinant human IL-38, mature form C2-W152 with C-terminal 7xHIS tag (ligand)
chain: CSLPMARYYIIKYADQKALYTRDGQLLVGDPVADNCCAEKICILPNRGLARTKVPIFLGIQGGSRCLACVETEEGPSLQLEDVNIEELYKGGEEATRFTFFQSSSGSAFRLEAAAWPGWFLCGPAEPQQPVQLTKESEPSARTKFYFEQSWHHHHHHH
notes: range 2-152; also called rhIL-38; plantakine IL-38
- secreted GM-CSF level modulation vs positive control (PHA-stimulated PBMCs; 1 ng/mL, PHA 5 μg/mL): 18.0%, p = 0.403
- secreted IFNγ level modulation vs positive control (PHA-stimulated PBMCs; 1 ng/mL, PHA 5 μg/mL): −35.6%, p = 0.137
- secreted IL-1α level modulation vs positive control (PHA-stimulated PBMCs; 1 ng/mL, PHA 5 μg/mL): −9.5%, p = 0.480
- secreted IL-1β level modulation vs positive control (PHA-stimulated PBMCs; 1 ng/mL, PHA 5 μg/mL): −2.0%, p = 0.888
- secreted IL-6 level modulation vs positive control (PHA-stimulated PBMCs; 1 ng/mL, PHA 5 μg/mL): −5.8%, p = 0.798
- secreted IL-8 level modulation vs positive control (PHA-stimulated PBMCs; 1 ng/mL, PHA 5 μg/mL): −11.3%, p = 0.736
- secreted IL-10 level modulation vs positive control (PHA-stimulated PBMCs; 1 ng/mL, PHA 5 μg/mL): 17.4%, p = 0.244
- secreted IL-12 level modulation vs positive control (PHA-stimulated PBMCs; 1 ng/mL, PHA 5 μg/mL): 63.3%, p = 0.020
- secreted IL-17 level modulation vs positive control (PHA-stimulated PBMCs; 1 ng/mL, PHA 5 μg/mL): 4.1%, p = 0.807
- secreted IL-22 level modulation vs positive control (PHA-stimulated PBMCs; 1 ng/mL, PHA 5 μg/mL): 8.1%, p = 0.631
- secreted TNFα level modulation vs positive control (PHA-stimulated PBMCs; 1 ng/mL, PHA 5 μg/mL): 46.2%, p = 0.173
- secreted GM-CSF level modulation vs positive control (PHA-stimulated PBMCs; 1 ng/mL, PHA 10 μg/mL): 1.5%, p = 0.881
- secreted IFNγ level modulation vs positive control (PHA-stimulated PBMCs; 1 ng/mL, PHA 10 μg/mL): −36.9%, p = 0.164
- secreted IL-1α level modulation vs positive control (PHA-stimulated PBMCs; 1 ng/mL, PHA 10 μg/mL): −5.8%, p = 0.469
- secreted IL-1β level modulation vs positive control (PHA-stimulated PBMCs; 1 ng/mL, PHA 10 μg/mL): 0.0%, p = 1.000
- secreted IL-6 level modulation vs positive control (PHA-stimulated PBMCs; 1 ng/mL, PHA 10 μg/mL): −2.0%, p = 0.898
- secreted IL-8 level modulation vs positive control (PHA-stimulated PBMCs; 1 ng/mL, PHA 10 μg/mL): −5.8%, p = 0.823
- secreted IL-10 level modulation vs positive control (PHA-stimulated PBMCs; 1 ng/mL, PHA 10 μg/mL): 22.1%, p = 0.033
- secreted IL-12 level modulation vs positive control (PHA-stimulated PBMCs; 1 ng/mL, PHA 10 μg/mL): 22.2%, p = 0.476
- secreted IL-17 level modulation vs positive control (PHA-stimulated PBMCs; 1 ng/mL, PHA 10 μg/mL): 22.1%, p = 0.166
- secreted IL-22 level modulation vs positive control (PHA-stimulated PBMCs; 1 ng/mL, PHA 10 μg/mL): 86.8%, p < 0.001
- secreted TNFα level modulation vs positive control (PHA-stimulated PBMCs; 1 ng/mL, PHA 10 μg/mL): 55.3%, p = 0.411
- secreted IFNγ level modulation vs positive control (PHA-stimulated PBMCs; 10 ng/mL, PHA 5 μg/mL): −53.2%, p = 0.032
- secreted IL-1α level modulation vs positive control (PHA-stimulated PBMCs; 10 ng/mL, PHA 5 μg/mL): 4.1%, p = 0.690
- secreted IL-1β level modulation vs positive control (PHA-stimulated PBMCs; 10 ng/mL, PHA 5 μg/mL): 4.1%, p = 0.801
- secreted IL-6 level modulation vs positive control (PHA-stimulated PBMCs; 10 ng/mL, PHA 5 μg/mL): 10.5%, p = 0.538
- secreted IL-8 level modulation vs positive control (PHA-stimulated PBMCs; 10 ng/mL, PHA 5 μg/mL): 8.3%, p = 0.772
- secreted IL-10 level modulation vs positive control (PHA-stimulated PBMCs; 10 ng/mL, PHA 5 μg/mL): 15.0%, p = 0.224
- secreted IL-12 level modulation vs positive control (PHA-stimulated PBMCs; 10 ng/mL, PHA 5 μg/mL): 107.0%, p = 0.079
- secreted IL-17 level modulation vs positive control (PHA-stimulated PBMCs; 10 ng/mL, PHA 5 μg/mL): 24.6%, p = 0.215
- secreted IL-22 level modulation vs positive control (PHA-stimulated PBMCs; 10 ng/mL, PHA 5 μg/mL): 55.8%, p < 0.001
- secreted TNFα level modulation vs positive control (PHA-stimulated PBMCs; 10 ng/mL, PHA 5 μg/mL): 49.2%, p = 0,123
- secreted GM-CSF level modulation vs positive control (PHA-stimulated PBMCs; 10 ng/mL, PHA 10 μg/mL): 42.6%, p = 0.016
- secreted IFNγ level modulation vs positive control (PHA-stimulated PBMCs; 10 ng/mL, PHA 10 μg/mL): −53.2%, p = 0.046
- secreted IL-1α level modulation vs positive control (PHA-stimulated PBMCs; 10 ng/mL, PHA 10 μg/mL): −2.0%, p = 0.893
- secreted IL-1β level modulation vs positive control (PHA-stimulated PBMCs; 10 ng/mL, PHA 10 μg/mL): 4.1%, p = 0.761
- secreted IL-6 level modulation vs positive control (PHA-stimulated PBMCs; 10 ng/mL, PHA 10 μg/mL): 6.2%, p = 0.722
- secreted IL-8 level modulation vs positive control (PHA-stimulated PBMCs; 10 ng/mL, PHA 10 μg/mL): −3.9%, p = 0.886
- secreted IL-10 level modulation vs positive control (PHA-stimulated PBMCs; 10 ng/mL, PHA 10 μg/mL): 32.3%, p < 0.001
- secreted IL-12 level modulation vs positive control (PHA-stimulated PBMCs; 10 ng/mL, PHA 10 μg/mL): 8.8%, p = 0.750
- secreted IL-17 level modulation vs positive control (PHA-stimulated PBMCs; 10 ng/mL, PHA 10 μg/mL): 19.7%, p = 0.188
- secreted IL-22 level modulation vs positive control (PHA-stimulated PBMCs; 10 ng/mL, PHA 10 μg/mL): 61.7%, p = 0.061
- secreted TNFα level modulation vs positive control (PHA-stimulated PBMCs; 10 ng/mL, PHA 10 μg/mL): 166.4%, p = 0.105
- secreted IFNγ level modulation vs positive control (PHA-stimulated PBMCs; 100 ng/mL, PHA 5 μg/mL): 6.2%, p = 0.856
- secreted IL-1α level modulation vs positive control (PHA-stimulated PBMCs; 100 ng/mL, PHA 5 μg/mL): 46.2%, p = 0.015
- secreted IL-1β level modulation vs positive control (PHA-stimulated PBMCs; 100 ng/mL, PHA 5 μg/mL): 43.3%, p = 0.019
- secreted IL-6 level modulation vs positive control (PHA-stimulated PBMCs; 100 ng/mL, PHA 5 μg/mL): 15.0%, p = 0.432
- secreted IL-8 level modulation vs positive control (PHA-stimulated PBMCs; 100 ng/mL, PHA 5 μg/mL): 10.5%, p = 0.731
- secreted IL-10 level modulation vs positive control (PHA-stimulated PBMCs; 100 ng/mL, PHA 5 μg/mL): 15.0%, p = 0.275
- secreted IL-12 level modulation vs positive control (PHA-stimulated PBMCs; 100 ng/mL, PHA 5 μg/mL): 123.0%, p < 0.001
- secreted IL-17 level modulation vs positive control (PHA-stimulated PBMCs; 100 ng/mL, PHA 5 μg/mL): 29.7%, p = 0.107
- secreted IL-22 level modulation vs positive control (PHA-stimulated PBMCs; 100 ng/mL, PHA 5 μg/mL): 15.3%, p = 0.347
- secreted TNFα level modulation vs positive control (PHA-stimulated PBMCs; 100 ng/mL, PHA 5 μg/mL): 85.9%, p = 0.026
- secreted IFNγ level modulation vs positive control (PHA-stimulated PBMCs; 100 ng/mL, PHA 10 μg/mL): 6.2%, p = 0.852
- secreted IL-1α level modulation vs positive control (PHA-stimulated PBMCs; 100 ng/mL, PHA 10 μg/mL): 40.5%, p < 0.001
- secreted IL-1β level modulation vs positive control (PHA-stimulated PBMCs; 100 ng/mL, PHA 10 μg/mL): 46.2%, p = 0.001
- secreted IL-6 level modulation vs positive control (PHA-stimulated PBMCs; 100 ng/mL, PHA 10 μg/mL): 4.1%, p = 0.810
- secreted IL-8 level modulation vs positive control (PHA-stimulated PBMCs; 100 ng/mL, PHA 10 μg/mL): −2.0%, p = 0.943
- secreted IL-10 level modulation vs positive control (PHA-stimulated PBMCs; 100 ng/mL, PHA 10 μg/mL): 22.1%, p = 0.033
- secreted IL-12 level modulation vs positive control (PHA-stimulated PBMCs; 100 ng/mL, PHA 10 μg/mL): 74.3%, p = 0.002
- secreted IL-17 level modulation vs positive control (PHA-stimulated PBMCs; 100 ng/mL, PHA 10 μg/mL): 55.3%, p = 0.003
- secreted IL-22 level modulation vs positive control (PHA-stimulated PBMCs; 100 ng/mL, PHA 10 μg/mL): 50.0%, p = 0.020
- secreted TNFα level modulation vs positive control (PHA-stimulated PBMCs; 100 ng/mL, PHA 10 μg/mL): 252.5%, p = 0.017
- Decreased secretion: number of treatments with statistically significant modulation (PHA-stimulated PBMCs; PHA 5 μg/mL): 1
- Increased secretion: number of treatments with statistically significant modulation (PHA-stimulated PBMCs; PHA 5 μg/mL): 7
- Decreased secretion: number of treatments with statistically significant modulation (PHA-stimulated PBMCs; PHA 10 μg/mL): 1
- Increased secretion: number of treatments with statistically significant modulation (PHA-stimulated PBMCs; PHA 10 μg/mL): 12
- attenuation of IL-6 secretion triggered by P1 [1]: −60%
